The DeepSol protein solubility set

Experiment: soluble on expression in E. coli; label from the status in PepcDB or PDB records

Row | Sequence | soluble on expression in E. coli
1 | MGSDKIHHHHHHMLPLPPYPLPNSIMWTQIDTHISQVTGEKFQSQQRRSVGGGCINQGYAVSNGEITYFVKLNLASQVAMFEAEALGLKEMLATASIRIPQPICWGVAENSSYIVLEWLELGNGNSNTSLRDAPRWEEMGRKLAAMHQASSSQGFGWKINNTIGSTPQINTWTADWTEFYIKHRLGYQFQLARRRGGSFPQQEKLLAAIRELLTHQVQPSLVHGDLWGGNAGCTASGEPVIFDPATYFGDREVDIAMTELFGGFPAAFYKGYNEVFPLDAGYEQRKTLYNLYHILNHFNLFGGGYASQANRMIDQILR | not soluble
2 | MGSDKIHHHHHHMTTLALTGDSILQRRLLSTSDPVIKPLFDLIRGCDAAFTNLEVLPNDYRGDPAFDSGGSHFGAPSWVLDDLVEAGFGMFSTATNHTLDYSISGLEYGLDQLDKRGLCHAGAGRHLEEARRAAYLTTPNAAIGMVACGSTYTKGQEAARQTAAMQGRPGLNPLWPDSTYEVTAEQMAVVKEMAEGLGLEKFRQIRISTGFAFEAPEGIFPFNGMNFRVGEQTRHVRHPNPKDLAAIIRWVEEAKLASDIALVSIHAHEHADEKDQPADFIVEFAHAVIDAGADLVVGHGPHLLRGMEIYKGKPIFYSLGNFIGQNEMVRQLPGESYDRFHVDDRLTPTQLYKQRTLDDQKGFPSDERYWQTVVPICHFEGDGLVDVEIHPVSLGLGEQRHRRGRPRLAHGAEAESILNRFSSLSYEFGSTLEVGDTCANAVL | not soluble
3 | MSLDNIERTLGQLFEGRDFEKEYQGLKQQVLHYQPIQDFFKEHKEEVTEQLVNQNLSNLYEFMTQHKKFTEQEETLMPGYAPKLVLNGEFITVTYYPTKEKIEEDKRRAVERRIRSLYMPKQVVDANLADFYTDEESRQLALVEAYQFLNNYPPKSGERVKGLFIHGSFGTGKSYLLGALAKELALKGISSTLVYLPEFMREVKQSISDNTVGEKIQFAKETEVLMLDDIGAESMTAWTRDEVLGAILQFRMQEELPTFFSSNYNMDQLENHLMFAQNGTEEKLKARRIMERVRYLSKEVNLEGEGHHHHHH | soluble
4 | MGSDKIHHHHHHMQNKNKTVVKSMALLNLFLHKPSLTLSELVSLTGMPKTSVHRMVSSLEEMGFLSRDASGAYSLGLVFLEFGQLVADRLDIRKIAKPVMEELCREVDEAVQLIMRDGNEAIYVEKIEGTQTVRLYTAIGRRSPLYAGACARSILSFLPREEIEAYIKQTELISIGSGTITDPEKLLQEIDASVQNGYTVSYSELENYTAAIGAPIFNHERQVAAGISIAGFEARFTEDRLPYLTEKVKDAALQISRK | not soluble
5 | MGSDKIHHHHHHMKGKYRVGLISFSDGREYVHRELEGIVKKFEDEIAKTLEETGEVEVIRAKEIVWKPSIAKREARRLAEEGAEVTIFNYAVWAFPHFTVLASKFAPGPFLLFSNINPQYPGMVAMLSAAGALEQDGTKHYRMWGNIKDEKVLRKVMAFIRAGSTYKKLRGQRYGVFGGRSMGMYTAVPNVDLWNKIFGVDVEHIDQFEIVRRSQLIPDERARKGRLWIEEKAKAVHYDGKYLTPEKLELQIKSYHAVREIVEEMELDFVGIKGQLELTEHFVTMDVTETFLNDPYDWEGEHEPIVCATEADSDGALTMQIFKLIAKTPVLFADVRHYVEEYDVLDLCNSGNHATYFAARSFDPDENMKKVEFYPQTFYFPAGGAAVKHIAAPGKVTLGRLTREDGRYRFTVVPGEFVDFGEEKNYEIADSIQNNWPHAFLKMETPIDEFLAKYSSNHIHGVYGDYVEEIKTFCEIASIDFVLMK | not soluble
6 | SSKAIPKQDIPEIAYERFTLPNGLTVIVHEDHKAPVIAVNVWYHIGSADEPARKTGFAHLFEHLMFSGSENHKASYFQPFEKIGATGMNGTTWFDRTNYFQTVPTTALDMALWMESDRMGHLLGAIGQKELDTQRGVVKNEKRQRENVPYGRVTQNILSNLFPANHPYQHSTIGSMEDLEAASLADVKSWFQAHYGAANATLVLAGDITLAEARDKAAKYFGDIPAGPPVA | not soluble
7 | MRLEFSIYRYNPDVDDAPRMQDYTLEADEGRDMMLLDALIQLKEKDPSLSFRRSCREGVCGSDGLNMNGKNGLACITPISALNQPGKKIVIRPLPGLPVIRDLVVDMGQFYAQYEKIKPYLLNNGQNPPAREHLQMPEQREKLDGLYECILCACCSTSCPSFWWNPDKFIGPAGLLAAYRFLIDSRDTETDSRLDGLSDAFSVFRCHSIMNCVSVCPKGLNPTRAIGHIKSMLLQRNA | soluble
8 | MQPASAKWYDRRDYVFIEFCVEDSKDVNVNFEKSKLTFSCLGGSDNFKHLNEIDLFHCIDPNDSKHKRTDRSILCCLRKGESGQSWPRLTKERAKLNWLSVDFNNWKDWEDDSDEDMSNFDRFSEMMNNMGGDEDVDLPEVDGADDDSQDSDDEKMPDLE | not soluble
9 | MGSDKIHHHHHHMGSQAIVTGASGFIGSSVARMLAHKGWTVHGIGSSHLAMEAQEQIGIKHWVQQDLTLASLQGLADKTGDPDIIIHCAGGSSVQASISNPYEDFARTANATLNVLEFMRRYSPASALVYPSSAAVYGQTSSLPIAESSTPKPFSPYGHHKRIAEILCESYSLQWQLSVSIVRLFSVYGAGLKKQLLWDACQKAEQGAYSFFGSGAEIRDWLHVEDASNLLILAAEYASPECVIINGGSGVGTSINEILKLVGSHFALVSAPTFSGKAREGDPDSYVADITKAQALGFIPSFSLSDGIRQYVEWFKKECML | not soluble
10 | SHMSLTPDQIVAALQERGWQAEIVTEFSLLNEMVDVDPQGILKCVDGRGSDNTQFCGPKMPGGIYAIAHNRGVTTLEGLKQITKEVASKGHVPSVHGDHSSDMLGCGFFKLWVTGRFDDMGYPRPQFDADQGAKAVENAGGVIEMHHGSHAEKVVYINLVENKTLEPDEDDQRFIVDGWAAGKFGLDVPKFLIAAAATVEMLGGPKKAKIVIP | soluble
11 | MGKQRECLVIVEGYDPYVVKVSHDATSYSDYKTGRELPFTIIRMNGFSDSEGVYCCIASDKSMEDHTDEARALLKAYKVKPL | not soluble
12 | LLLYIHGFNSSPLSMKANLMREYCAQHRPDIKVIVPQLPCFPEQAAQLLLDIVEQYKDDYNIGLVGSSLGGYMSTWLNAKYGFKAVVVNPAVKPYELLVDYLGEQTNPYTRETYTLEACHIDELKALDVQSIASPHSFWLLQQTEDEVLDYRQAVDKFAKAKQTVEQGGDHSFVGFERYPAKIIEFLE | not soluble
13 | MRCIMTEDAQKLAIMEQDVKIVRALSKIKHKIVVMSGKGGVGKSTVTVKLAEEFSRNGYSVCVLDADVHGPDIPKMMRVREPEITLTGNLINPIPTPVGATVMSIEFFLPSEDTPVIWRGPKKTGAIRQLLADVNWEGIDVLIVDNPPGTGDEPLTVLQSIPGIDGVVIVTTPQEVSIHDVEKCINMVNHLKIPVLGIIENMSYLQCPECGKKVFLFGKDGGKYLADKFDLQFLGEIPFETGISGDNESSASSYINNEMVKIFNKLAKYLKDGGANLEHHHHHH | soluble
14 | MGSDKIHHHHHHMLPMADQIQTLQEQVLQARSNGQKLNIVGGGTKSFMGRQGCAEAGTLSLAEHTGVVEYHPVELVLTVRAGTPLKEIEAVLAEQGQCLHFEPPHFGDASTIGGTLACNLSGPARPWAGSVRDQVLGIRLLNGKGEHLRFGGQVMKNVAGYDVSRLQAGAMGTLGVITEISLKVMPKPAATTTLVREMTMDEVVEYMNRRAGEPKPITGACWVDGKVYLRLAGAKSAVEATAEQWGGQVLADGEQFWRQVQDMQHPFFDDPELPLWRFSVDSTAKTPELDGPWMIDWAGSQRWYRGQASLDQLEPLARAAGGQVSLFRGGDRTGEVMHGQPQALKTIQQRVKKSFDPDAIFNPGRLYSWL | not soluble
15 | MHHHHHHSSGRENLYFQGFRGTDPGDVVIEELFNRIPQANVRTTSEYMQSAADSLVSTSLWNTGQPFRVESELGERPRTLVRGTVLGQEDPYAYLEATDQETGESFEVHVPYFTERPPSNAIKQMKEEVLRLRLLRGIKNQKQAKVHLRFIFPFDLVKDPQKKKMIRVRLDERDMWVLSRFFLYPRMQSNLQTFGEVLLSHSSTHKSLVHHARLQLTLQVIRLLASLHHYGLVHTYLRPVDIVLDQRGGVFLTGFEHLVRDGASAVSPIGRGFAPPETTAERMLPFGQHHPTLMTFAFDTWTLGLAIYWIWCADLPNTDDAALGGSEWIFRSCKNIPQPVRALLEGFLRYPKEDRLLPLQAMETPEYEQLRTELSAALPLYQTDGEPTREGGAPPSGTSQPDEAGAAEAVTAI | soluble
16 | TARKCLLEKVEVITGEEAESNVLQMQCKLFVFDKTSQSWVERGRGLLRLNDMASTDDGTLQSRLVMRTQGSLRLILNTKLWAQMQIDKASEKSIHITAMDTEDQGVKVFLISASSKDTGQLYAALHHRILALRSRVE | soluble
17 | MVDPVGFAEAWKAQFPDSEPPRMELRSVGDIEQELERCKASIRRLEQEVNQERFRMIYLQTLLAKEKKSYDRQRWGFRRAAQAPDGASEPRASASRPQPAPADGADPPPAEEPEARPDGEGSPGKARPGTARRPGAAASGERDDRGPPASVAALRSNFERIRKGHGQPGADAEKPFYVNVEFHHERGLVKVNDKEVSDRISSLGSQAMQMERKKSQHGAGSSVGDASRPPYRGRSSESSCGVDGDYEDAELNPRFLKDNLIDANGGSRPPWPPLEYQPYQSIYVGGMMEGEGKGPLLRSQSTSEQEKRLTWPRRSYSPRSFEDCGGGYTPDCSSNENLTSSEEDFSSGQSSRVSPSPTTYRMFRDKSRSPSQNSQQSFDSSSPPTPQCHKRHRHCPVVVSEATIVGVRKTGQIWPNDGEGAFHGDADGSFGTPPGYGCAADRAEEQRRHQDGLPYIDDSPSSSPHLSSKGRGSRDALVSGALESTKASELDLEKGLEMRKWVLSGILASEETYLSHLEALLLPMKPLKAAATTSQPVLTSQQIETIFFKVPELYEIHKEFYDGLFPRVQQWSHQQRVGDLFQKLASQLGVYRAFVDNYGVAMEMAEKCCQANAQFAEISENLRARSNKDAKDPTTKNSLETLLYKPVDRVTRSTLVLHDLLKHTPASHPDHPLLQDALRISQNFLSSINEEITPRRQSMTVKKGEYRQLLKDSFMVELVEGARKLRHVFLFTDLLLCTKLKKQSGGKTQQYDCKWYIPLTDLSFQMVDELEAVPNIPLVPDEELDALKIKISQIKSDIQREKRANKGSKATERLKKKLSEQESLLLLMSPSMAFRVHSRNGKSYTFLISSDYERAEWRENIREQQKKCFRSFSLTSVELQMLTNSCVKLQTVHSIPLTINKEDDESPGLYGFLNVIVHSATGFKQSSNLYCTLEVDSFGYFVNKAKTRVYRDTAEPNWNEEFEIELEGSQTLRILCYEKCYNKTKIPKEDGESTDRLMGKGQVQLDPQALQDRDWQRTVIAMNGIEVKLSVKFNSREFSLKRMPSRKQTGVFGVKIAVVTKRERSKVPYIVRQCVEEIERRGMEEVGIYRVSGVATDIQALKAAFDVNNKDVSVMMSEMDVNAIAGTLKLYFRELPEPLFTDEFYPNFAEGIALSDPVAKESCMLNLLLSLPEANLLTFLFLLDHLKRVAEKEAVNKMSLHNLATVFGPTLLRPSEKESKLPANPSQPITMTDSWSLEVMSQVQVLLYFLQLEAIPAPDSKRQSILFSTEV | soluble
18 | GMGMEHKTYEADLFVWCQQQADGLRALSRSRRDLPDDLDLEHIAEEIEDMGRSELREATSLVRQICVRVIMAMSAPEAPDRARWRSEVVSWHNLLLDTITPGMIDRIDIGVIWRRAVSEAKAALIEINVAPQAGLSFQAPLPADHFLDEDFDYDATVARLGPTA | soluble
19 | MAKSPVEVNLIPIEATPENFAEYGQVIEASRDGAGFGPHDAQLDLSRGTPRLYILRLKETPLGFFKITHHAKVTQCLGSIGGDVWYMGVAKPSLIEDDDDDGRSVDTVKSKSGHLYIPPEVEEIRVFRFSGPKFVKLHRGTWHAGPLFSGSSFMDFYNLELSNTNVSEEWF | soluble
20 | MEDEDVPVCWICNEELGNERFRACGCTGELENVHRSCLSTWLTISRNTACQICGVVYNTR | soluble
